The source of these data is PMC12489474, “New structural insights into the control of the retinoic acid receptors RAR/RXR by DNA, ligands, and transcriptional coregulators” (Nucleic Acids Research, 2025).

T1: HsRXRAΔAB (retinoid X receptor alpha without the A/B domain) (human (printed as HsRXRAΔAB; the same …, UniProt P19793 126-462)
T1 construct: A/B domain removed; In the rows of this molecule it stood as a subunit of the RAR/RXR heterodimer; Vector pET28b; also called RXRα; MmRXRAΔAB; source: E. coli BL21 (DE3), purified (HisTrap HP, thrombin cleavage, SEC Superdex 75); not shown: His6, N-terminal, cleaved
T1 sequence (looked up): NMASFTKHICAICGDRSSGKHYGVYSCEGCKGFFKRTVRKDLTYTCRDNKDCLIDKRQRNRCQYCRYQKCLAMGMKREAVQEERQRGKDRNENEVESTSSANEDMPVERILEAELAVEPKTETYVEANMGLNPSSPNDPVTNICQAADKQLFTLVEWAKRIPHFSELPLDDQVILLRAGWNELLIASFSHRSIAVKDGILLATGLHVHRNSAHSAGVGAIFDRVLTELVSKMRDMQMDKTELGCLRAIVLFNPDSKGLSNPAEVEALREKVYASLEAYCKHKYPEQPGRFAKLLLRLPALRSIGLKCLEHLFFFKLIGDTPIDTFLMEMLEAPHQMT

B1: RAR/RXR heterodimer (RARAΔABF with RXRAΔAB) (complex)
chain 1: PRIYKPCFVCQDKSSGYHYGVSACEGCKGFFRRSIQKNMVYTCHRDKNCIINKVTRNRCQYCRLQKCFDVGMSKESVRNDRNKKKKEAPKPECSESYTLTPEVGELIEKVRKAHQETFPALCQLGKYTTNNSSEQRVSLDIDLWDKFSELSTKCIIKTVEFAKQLPGFTTLTIADQITLLKAACLDILILRICTRYTPEQDTMTFSDGLTLNRTQMHNAGFGPLTDLVFAFANQLLPLEMDDAETGLLSAICLICGDRQDLEQPDKVDMLQEPLLEALKVYVRKRRPSRPHMFPKMLMKITDLRSISAKGAERVITLKMEIPGSMPPLIQEMLENSEGLD
chain 2: T1 sequence (looked up)
notes: retinoic acid receptor alpha, residues 82-421 of Uniprot entry P11416; as the chain of m1; as the chain of m2; 1:1 heterodimer by SEC-MALS; this is told in the format of each assay; also called RR–DR0; source: E. coli BL21 (DE3); RAR and RXR purified separately, mixed (2-fold excess of RAR), heterodimer purified by SEC (Superdex 200); not shown: His6, N-terminal, cleaved
B2: MmRARAΔABF (retinoic acid receptor alpha without the A/B and F domains) (domain or fragment, UniProt P11416 82-421, looked up)
chain: B1 chain 1
notes: retinoic acid receptor alpha, residues 82-421 of Uniprot entry P11416 (DBD, hinge and LBD; A/B and F domains removed); In the rows of this molecule it stood as a subunit of the RAR/RXR heterodimer; Vector pET15b; also called RARα; NR1B1; source: E. coli BL21 (DE3), purified (HisTrap HP)
B3: DR5 Rarb2 Cy5 (dsDNA)
DNA 1: AGGGTTCACCGAAAGTTCACT
DNA 2: AGTGAACTTTCGGTGAACCCT
B4: DR5 Rarb2 (dsDNA)
DNA 1: AGGGTTCACCGAAAGTTCACT
DNA 2: AGTGAACTTTCGGTGAACCCT
B5: DR1 idealized Cy5 (dsDNA)
DNA 1: CTAGGTCAAAGGTCAGC
DNA 2: GCTGACCTTTGACCTAG
B6: DR1 idealized (dsDNA)
DNA 1: CTAGGTCAAAGGTCAGC
DNA 2: GCTGACCTTTGACCTAG
B7: DR0 Hoxb13 Cy5 (dsDNA)
DNA 1: GAAGGTCAAGGCCAAG
DNA 2: CTTGGCCTTGACCTTC
B8: NCoRNID (nuclear receptor interaction domain of the Nuclear receptor CoRepressor) (domain or fragment, UniProt Q60974 2059-2325, looked up)
chain: QVPRTHRLITLADHICQIITQDFARNQVPSQASTSTFQTSPSALSSTPVRTKTSSRYSPESQSQTVLHPRPGPRVSPENLVDKSRGSRPGKSPERSHIPSEPYEPISPPQGPAVHEKQDSMLLLSQRGVDPAEQRSDSRSPGSISYLPSFFTKLESTSPMVKSKKQEIFRKLNSSGGGDSDMAAAQPGTEIFNLPAVTTSGAVSSRSHSFADPASNLGLEDIIRKALMGSFDDKVEDHGVVMSHPVGIMPGSASTSVVTSSEARRDE
notes: Unlabelled form used for SEC-MALS, SEC-SAXS and HDX-MS; also called NCOR1
B9: IR0 Trim16 Cy5 (dsDNA)
DNA 1: GCAGGGTCATGACCCCGC
DNA 2: CGCGGGGTCATGACCCTG
B10: IR0 Trim16 (dsDNA)
DNA 1: GCAGGGTCATGACCCCGC
DNA 2: CGCGGGGTCATGACCCTG

For data set [1], the target named is NCoRNID mut2 (point mutations designed to disrupt the helical folding of the IR region) (UniProt Q60974). The data set can be described thus: MST; RAR/RXR bound to DR5 DNA (RR–DR5), no ligand (apo); heterodimer titrated against labelled NCoRNID; same buffer, 22°C.
Data set [2] addresses Alexa488-labeled TIF-2NRID. Put plainly: fluorescence polarisation; steady-state fluorescence anisotropy; RR–DR1 titrated against 10 nM Alexa488-TIF-2NRID with 12 μM AM580 and CD3254; same buffer.
Data set [3] concerns the target NCoRNID mut2 (point mutations designed to disrupt the helical folding of the IR region) (UniProt Q60974). The data set can be described thus: MST; RR–DR5 with BMS493; heterodimer titrated against labelled NCoRNID; same buffer, 22°C.
Data set [4] addresses NCoRNID mut1 (IR region replaced by a fully disordered segment) (UniProt Q60974). Put plainly: MST; RAR/RXR bound to DR1 DNA (RR–DR1), no ligand (apo); heterodimer titrated against labelled NCoRNID; same buffer, 22°C.
Data set [5] addresses TIF-2NRID (nuclear receptor interaction domain of the transcriptional intermediary factor 2). Put plainly: SEC; with SDS–PAGE; complexes of RR–DNA and TIF-2NRID formed in the presence of both agonists (AM580, CD3254).
In data set [6] the target is Alexa488-labeled TIF-2NRID. Put plainly: fluorescence polarisation; steady-state fluorescence anisotropy; RR–DR5 titrated against 10 nM Alexa488-TIF-2NRID with 12 μM AM580 and CD3254; same buffer.
The target in data set [7] is Alexa488-labeled TIF-2NRID. The data set can be described thus: fluorescence polarisation; steady-state fluorescence anisotropy; RAR/RXR without DNA titrated (from 4 μM, 2-fold dilutions) against 10 nM Alexa488-TIF-2NRID with 12 μM AM580 and CD3254; 20 mM Tris–HCl pH 7.5, 75 mM NaCl, 75 mM KCl, 2 mM CHAPS, 4 mM MgCl2, 5 mM DTT, 10% glycerol.
Data set [8] addresses B8. The data set can be described thus: SEC-MALS; with SDS–PAGE; complexes of RR–DNA and NCoRNID formed in the presence of BMS493. To be noted: both partners purified.
The target in data set [9] is Alexa488-labeled TIF-2NRID. Put plainly: fluorescence polarisation; steady-state fluorescence anisotropy; RR–DR0 titrated against 10 nM Alexa488-TIF-2NRID with 12 μM AM580 and CD3254; same buffer.
Data set [10] has as its target Alexa488-labeled TIF-2NRID. Put plainly: fluorescence polarisation; steady-state fluorescence anisotropy; RR–IR0 titrated against 10 nM Alexa488-TIF-2NRID with 12 μM AM580 and CD3254; same buffer.
The target of data set [11] is T1, HsRXRAΔAB (retinoid X receptor alpha …). The data set can be described thus: SEC-MALS; purified RAR/RXR heterodimer; single peak, molecular weight matching the heterodimer. To be noted: both partners purified.
The target of data set [12] is T2, RARalpha dAB dF;RXRalpha dAB (Mus musculus / Homo sapiens (Methods …, UniProt P11416;P19793 82-421;126-462, |)). The data set can be described thus: fluorescence anisotropy; BMS493; Fluorescence anisotropy: 20 mM Tris-HCl pH 7.5, 75 mM NaCl, 75 mM KCl, 2 mM CHAPS, 4 mM MgCl2, 2 mM TCEP, 10% glycerol, 0.5 nM Cy5-DNA, 4 uM ligands, 294 K. To be noted: protein: recombinant;recombinant, tags: N-terminal His6 (pET15b), copies: 1;1, label: Cy5 on forward strand.

Data set [13] deals with T2, RARalpha dAB dF;RXRalpha dAB. Put plainly: fluorescence anisotropy; apo; Fluorescence anisotropy: 20 mM Tris-HCl pH 7.5, 75 mM NaCl, 75 mM KCl, 2 mM CHAPS, 4 mM MgCl2, 2 mM TCEP, 10% glycerol, 0.5 nM Cy5-DNA, 4 uM ligands, 294 K. The note with it: protein: recombinant;recombinant, tags: N-terminal His6 (pET15b), copies: 1;1, label: Cy5 on forward strand.
Data set [14] has the same target. The data set can be described thus: fluorescence anisotropy; AM580 + CD3254; Fluorescence anisotropy: 20 mM Tris-HCl pH 7.5, 75 mM NaCl, 75 mM KCl, 2 mM CHAPS, 4 mM MgCl2, 2 mM TCEP, 10% glycerol, 0.5 nM Cy5-DNA, 4 uM ligands, 294 K. To be noted: protein: recombinant;recombinant, tags: N-terminal His6 (pET15b), copies: 1;1, label: Cy5 on forward strand.
In data set [15] the target is RARalpha dAB dF;RXRalpha dAB;NCoR NID (Mus musculus / Homo sapiens (Methods …, UniProt P11416;P19793;Q60974 82-421;126-462;2059-2325, ||)). Put plainly: SEC-SAXS, HDX-MS; BMS493; Fluorescence anisotropy: 20 mM Tris-HCl pH 7.5, 75 mM NaCl, 75 mM KCl, 2 mM CHAPS, 4 mM MgCl2, 2 mM TCEP, 10% glycerol, 0.5 nM Cy5-DNA, 4 uM ligands, 294 K. The note with it: protein: recombinant;recombinant;recombinant, tags: N-terminal His6 (pET15b), copies: 1;1;1.

Data set [16] addresses T1, HsRXRAΔAB (retinoid X receptor alpha …). The data set can be described thus: HDX-MS; RAR/RXR and RR–DNA (DR0, DR1, DR5, IR0) with and without NCoRNID, with BMS493; 4°C, 20 μM complex diluted 10-fold into deuterated buffer pD 7.5; 4 s to 10 800 s; RAR and RXR read as subunits of the heterodimer. To be noted: both partners purified.
Where [17] appears, read: 5' overhang 1 nt at both ends (so in the source).

For B1, the Kd is 576 nM in data set [1]; 30.1 nM in data set [2]; 538 nM in data set [3]; 347 nM in data set [4]; 27.7 nM in data set [6]; 126 nM in [7]. Besides, the results for the Kd in [9] and in [10] were 55.1 nM and 22.7 nM, respectively. The stoichiometry N in data set [5] and in [8] was 1 in each case.
Consider B2, for which, in [11], the “stoichiometry N” value came out at 1.
For B3, the Kd in [12] (blunt) turned out to be 15 ± 2 nM; in [13] (blunt), 1.7 ± 0.8 nM; in data set [14] (blunt), 2.4 ± 0.9 nM.
On to B4, for which the binding result in data set [15] (blunt) is recorded as “binds”.
As to B5, the Kd in data set [12] (blunt) was found to be 24.6 ± 5 nM; in data set [13] (blunt) it was 6.1 ± 2.2 nM; in [14] (blunt), 8.7 ± 2.9 nM.
B6: the binding result in data set [15] (blunt) is recorded as “binds”.
In the case of B7, the Kd in data set [12] (blunt) was determined as 101 ± 48.1 nM; in data set [13] (blunt), 33.5 ± 16.4 nM; in data set [14] (blunt), 24.1 ± 17.3 nM.
As to B8, in [16], the binding result was “binds”.
As to B9, the equilibrium dissociation constant (Kd) stood at 29.1 ± 24.2 nM in data set [12] (setting [17]), 1.9 ± 1.3 nM in data set [13] (setting [17]) and 3.8 ± 3.1 nM in data set [14] (setting [17]).
B10: the binding result in data set [15] (setting [17]) is reported as “binds”.
